Reference: patent US20040156861A1 (US Dept. of Health and Human Services, published 2004)
Read-outs that look alike come from different tables or passages of the source.

Legend:
[1] = molecular target: T1, HLA-A*0201 (human); test: T2 cell HLA-A*0201 stabilization, flow cytometry with mAb BB7.2
T1 construct: also called HLA-A2.1; HLA-A2

[2] = molecular target: gp100 280-288 …; test: cell-based or functional assay
[3] = molecular target: gp100 154-162 epitope-analogue …; test: cell-based or functional assay
[4] = molecular target: gp100 154-162 epitope …; test: cell-based or functional assay
[5] = molecular target: gp100 280-288 …; test: cell-based or functional assay; remark: listed apart in the source
[6] = molecular target: Melan-A/MART-1 27-35 epitope-analogue AIGIGLTV (SEQ ID NO: 30); test: cell-based or functional assay
[7] = molecular target: Melan-A/MART-1 27-35 epitope …; test: cell-based or functional assay
[8] = molecular target: T1, HLA-A*0201; test: T2 cell HLA-A*0201 stabilization, flow cytometry with mAb BB7.2; remark: listed apart in the source
Protocol: (§1) Briefly, peptides were diluted from DMSO stocks to various concentrations (final DMSO concentration 0.5%) and were incubated together with 10⁵ T2 cells for 14 hours at 37° C., 5% CO₂ in serum-free Iscoves medium in a volume of 100 ml in the presence of 3 mg/ml human β2-microglobulin (Sigma, St Louis, Mo.). […] The Fluorescence Index is expressed as: (experimental mean fluorescence÷background mean fluorescence)−1.
(§2) ^aBinding of peptides to HLA-A2.1 was analyzed using the processing-defective T2 cell line at the indicated peptide concentrations.

[9] = molecular target: T1, HLA-A*0201; test: competition with 150 nM FL-labeled reference peptide on mild-acid treated HLA-A*0201+ JY B-LCL at 4 C, flow cytometry
Description: Subsequently, the cells were washed, fixed with paraformaldehyde and analyzed by flow cytometry. […] The binding capacity of competitor peptides is expressed as the concentration needed to inhibit 50% of binding of the FL-labeled reference peptide (IC₅₀).

[10] = molecular target: T1, HLA-A*0201; test: T2 cell HLA-A*0201 stabilization, flow cytometry with mAb BB7.2; remark: listed apart in the source
Protocol: as §1, §2

[11] = molecular target: T1, HLA-A*0201; test: decay of cell-surface HLA-A*0201-peptide complexes at 37 C on emetine-pretreated B-LCL, flow cytometry
Protocol: Measurement of MHC-peptide complex stability was performed. […] The cells were then mild-acid treated and subsequently loaded with 200 mM of peptide for 1 hour at room temperature. Thereafter, the cells were washed twice to remove free peptide and were incubated at 37° C. for 0, 2, 4 and 6 hours.

Work on “Melan-A/MART-1 27-35 epitope-analogue AIGIGLTV (SEQ ID NO: 30) (peptide)” yielded a Fluorescence Index (HLA-A*0201 stabilization), 25 µM peptide [1] of 1.29 and a Fluorescence Index (HLA-A*0201 stabilization), 50 µM peptide [1] of 1.58.

In the case of “T-cell receptor of gp100-reactive TIL 1200 lymphocytes (TCR)”, the % specific lysis by TIL 1200 of T2 target cells preincubated with 1 µM peptide, E:T 20:1 (% specific lysis) [2] is reported as 3, the peptide titration, sensitization of T2 target cells for lysis by TIL 1200 (FIG. 1) (fold lower concentration than wild type) [3] is reported as 10 and the peptide titration, sensitization of T2 target cells for lysis by TIL 1200 (FIG. 2) (fold lower concentration than wild type) [3] is reported as 10. The % specific lysis by TIL 1200 of T2 target cells preincubated with 1 µM peptide, E:T 20:1 (% specific lysis) [4] was 67.

In the case of “T-cell receptor of Melan-A/MART-1 27-35-reactive TIL 1235 lymphocytes (TCR)”, the % specific lysis by TIL 1235 of T2 target cells preincubated with 1 µM peptide, E:T 20:1 (% specific lysis) [5] is reported as -1, the % specific lysis by TIL 1235 of T2 target cells preincubated with 1 µM peptide, E:T 20:1 (% specific lysis) [6] is reported as 27 and the % specific lysis by TIL 1235 of T2 target cells preincubated with 1 µM peptide, E:T 20:1 (% specific lysis) [2] is reported as -3. For the same molecule, the % specific lysis by TIL 1235 of T2 target cells preincubated with 1 µM peptide, E:T 20:1 (% specific lysis) [7] was 40.

ATWGQYWQV (synthetic; alanine at position 1) [gp100 154-162 epitope-analogue ATWGQYWQV] was tested, and the “Fluorescence Index (HLA-A*0201 stabilization), 25 µM peptide” value (from here on “Fluorescence Index … 25 µM peptide”) [8] was 1.42 and the “Fluorescence Index (HLA-A*0201 stabilization), 50 µM peptide” value (“Fluorescence Index … 50 µM peptide” below) [8] was 1.94.

B1: gp100 154-162 epitope-analogue KIWGQYWQV (peptide)
peptide: KIWGQYWQV
notes: synthetic; N-terminal anchor (position 2) replaced by I
With B1 the IC50 [9] was 0.6 µM, the “Fluorescence Index … 25 µM peptide” value [10] was 1.43 and the “Fluorescence Index … 50 µM peptide” value [10] was 2. The “Stability (DT 50%)” value [11] was over 4 h.

KTWGAYWQV (synthetic; alanine at position 5) [gp100 154-162 epitope-analogue KTWGAYWQV] was tested, and the “Fluorescence Index … 25 µM peptide” value [8] was 1.25 and the “Fluorescence Index … 50 µM peptide” value [8] was 1.59.

For KTWGQYWAV (synthetic; alanine at position 8) [gp100 154-162 epitope-analogue KTWGQYWAV], the IC50 [9] was 0.5 µM, the “Stability (DT 50%)” value [11] was over 4 h and the “Fluorescence Index … 25 µM peptide” value [8] was 1.35. The “Fluorescence Index … 50 µM peptide” value [8] was 1.72.

B2: gp100 154-162 epitope-analogue KVWGQYWQV (peptide)
peptide: KVWGQYWQV
notes: synthetic; N-terminal anchor (position 2) replaced by V
For B2, the IC50 [9] was 0.8 µM, the “Fluorescence Index … 25 µM peptide” value [10] was 1.57 and the “Fluorescence Index … 50 µM peptide” value [10] was 2.13. For the same molecule, the “Stability (DT 50%)” value [11] was over 4 h.

With KTWGQYWQA (synthetic; alanine at position 9) [gp100 154-162 epitope-analogue KTWGQYWQA] the “Fluorescence Index … 25 µM peptide” value [8] was 1.02 and the “Fluorescence Index … 50 µM peptide” value [8] was 1.08.

In the case of KAWGQYWQV (synthetic; alanine at position 2) [gp100 154-162 epitope-analogue KAWGQYWQV], the “Fluorescence Index … 25 µM peptide” value [8] is reported as 1.2 and the “Fluorescence Index … 50 µM peptide” value [8] is reported as 1.57.

In the case of KTAGQYWQV (synthetic; alanine at position 3) [gp100 154-162 epitope-analogue KTAGQYWQV], the “Fluorescence Index … 25 µM peptide” value [8] is reported as 1.02 and the “Fluorescence Index … 50 µM peptide” value [8] is reported as 1.17.

B3: gp100 154-162 epitope-analogue KLWGQYWQV (peptide)
peptide: KLWGQYWQV
notes: synthetic; N-terminal anchor (position 2) replaced by L
In the case of B3, the IC50 [9] is reported as 0.4 µM, the “Fluorescence Index … 25 µM peptide” value [10] is reported as 1.55 and the “Fluorescence Index … 50 µM peptide” value [10] is reported as 2.19. For the same molecule, the “Stability (DT 50%)” value [11] was over 4 h.

With KTWGQYAQV (synthetic; alanine at position 7) [gp100 154-162 epitope-analogue KTWGQYAQV] the “Fluorescence Index … 25 µM peptide” value [8] was 1.14 and the “Fluorescence Index … 50 µM peptide” value [8] was 1.31.

B4: gp100 154-162 epitope-analogue KMWGQYWQV (peptide)
peptide: KMWGQYWQV
notes: synthetic; N-terminal anchor (position 2) replaced by M
For B4, the “Fluorescence Index … 25 µM peptide” value [10] was 1.28 and the “Fluorescence Index … 50 µM peptide” value [10] was 1.73.

KTWGQAWQV (synthetic; alanine at position 6) [gp100 154-162 epitope-analogue KTWGQAWQV] was tested, and the “Fluorescence Index … 25 µM peptide” value [8] was 1.15 and the “Fluorescence Index … 50 µM peptide” value [8] was 1.42.
